This data set deals with the molecule itself. Nature of the data set: negative stain electron microscopy.

B1: Drosophila P5CS, purified from E. coli (enzyme, UniProt Q9VNW6 1-776, looked up)
chain: MLQNSFKLAQSLRNGFYRNAWRAFSSHGPRQPLVSPERRLEKAHPTFTERSQLKYARRLVVKLGSAVITREDNHGLALGRLASIVEQVAECHLEGREVMMVTSGAVAFGKQKLAQELLMSLSMRETLNPKDSKEFDGATLEPRAAAAVGQSGLMSLYDAMFAQYGVKIAQVLVTKPDFYNEETRNNLFCTLSELISLNIVPIINTNDAVSPPMFIRDDEPAGGARRGIPIKDNDSLSAMLAAEVQADLLILMSDVDGIYNKPPWEDGAKLMHTYTSDDSNSIEFGKKSKVGTGGMDSKVKAATWALDRGVSVVICNGMQEKAIKTIIGGRKVGTFFTEATESANAVPVEVMAENARTGSRQMQALTPAQRASAVNTLADLLVSREKFILDANAKDLAEAQKSGLAKPLLSRLSLNPAKLKNLSVGLKQIAEDSHKNVGRVLRRTRLADQLELKQVTVPIGVLLVIFESRPDSLPQVAALAMASANGLLLKGGKEAAHSNKALMELVKEALATVGAEHAVSLVSTREEISDLLSMENHIDLIIPRGSSDLVRSIQQQSLHIPVLGHAEGVCHVYIDRDADLEKALRIARDAKCDYPAACNAMETLLIHEDLMSGAIFGDVCNMLKREGVKIYAGPRLNQQLTFGPPAAKSLKHEYGALECCIEVVPSLDEAINHIHTYGSSHTDVIVTENDAAARQFLGSVDSACVFHNASSRFADGFRFGLGAEVGISTARIHARGPVGVEGLLTTKWILEGQDHAAADFAEGGGRTWLHETLPLD
Consider B1, for which the binding result is given as “binds”.

Source of the values: article doi:10.1101/2019.12.11.872267 (bioRxiv, 2019).
